Measured values published in the supplement of paper PMC12042874.
± gives the uncertainty stated by the source.

Assay: amyloid nucleation score (Sup35N fusion, yeast selection) (log enrichment); library NNK2; higher = more nucleation; inactive = no reads after selection
Procedure, shortened: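 The nucleation score is the DiMSum log enrichment of output over input reads, centred on the mode score of non-aggregating sequences. Only sequences with 100 or more input reads were scored, using Illumina sequencing of input and output plasmid inserts. Psi-negative yeast expressing Sup35N fused to peptides of 20 random codons were induced 24 hours with 100 μM copper sulfate and grown 7 days at 30°C on medium lacking adenine and uracil.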

Substance	amyloid nucleation score
NVGGIASLGPFTY	-0.14 ± 0.27
NVHCILMSGVMGIQYRWKVL	0.395 ± 0.51
NVHDSLFWQFVIVNYTIGLS	3.38 ± 0.042
NVIMMDLWVDLAFKSLGYG	6.291 ± 0.046
NVLRRFNCWRYESGFSNFVN	-1.38 ± 0.36
NVVMHRENVYFCLVNLHWTD	7.837 ± 0.04
NWFHVRTDCRRWGGRKVYYN	-0.883 ± 1.1
NWIPGVVEKRSRLSGFWSWL	0.657 ± 0.23
NWLKYFYVSDFQWWKGYPHV	-0.067 ± 0.36
NWVWLKWRITQYFIHSASSS	1.43 ± 0.19
NWWYSRSRPHMGSSISFSEV	-0.37 ± 0.41
NYLLMR	0.414 ± 0.35
NYRLQIINGRRSTSVRVQGA	0.606 ± 0.36
NYTGQTFVMTGLISFNPQIG	5.79 ± 0.074
NYVVE	4.73 ± 0.069
PAASLRLRELMRYDDWRGVA	0.03 ± 0.38
PATLAKIYSVGVGNYHRFVR	inactive
PAWSITLVPLLHTGCSDTKR	0.582 ± 0.31
PCACCYGSLAYAAVHSNWLG	8.495 ± 0.07
PCCFYLRICLCFSNTVEPIG	4.07 ± 0.046
PCHFVCDCTRMASTTVIHV	0.01 ± 0.45
PCISDIFKMDNIYGQQSLFP	-0.266 ± 1.1

Substance	amyloid nucleation score
PCNLKNNCVSEWIGLFVQPQ	2.23 ± 0.18
PCTMDYGVPRT	0.585 ± 0.66
PCYFINFLRFSWNIQLYNVL	-0.668 ± 1.1
PDFRSP	-0.451 ± 0.41
PDFYMYPSLNDKSDLI	-0.78 ± 0.76
PDLMLPDRLDIERCLQVWD	0.049 ± 0.18
PDRVLLYKLTVRRFTGCDWG	2.32 ± 0.17
PDYYYMTTLLYCRSSKSLKR	-1.46 ± 1.1
PEFLNKMQTTIYDKDCYMDR	inactive
PEMLHTVILGISSNHYERGL	-1.12 ± 0.74
PEMWHYMRFSSIKIRLTSKF	-0.016 ± 0.65
PEWFGR	0.588 ± 0.23
PEYPVQIYMSMDL	-1.33 ± 0.78
PFGGVEAFAGRMWWVEHSYW	0.009 ± 0.55
PFGMCSFTVVIYYGCFEDAH	0.519 ± 0.3
PFMLSVHFALYMSDYIYMHL	-0.02 ± 0.46
PFVTFATVFLLKPMVFAKQC	1.23 ± 0.38
PGIMNVPS	0.456 ± 0.32
PGSVWFSLTSMHE	0.623 ± 0.66
PGVPP	-1.06 ± 1.1
PHDVFRWCVCAVPGSERSTG	0.815 ± 0.25
PHVFYCSILV	inactive

Substance	amyloid nucleation score
PIFNMSTPNFLSSPESRLLV	inactive
PIKYIVFSVLSCRRCLGNSM	0.651 ± 0.48
PIRCRMKFY	-0.599 ± 0.38
PISFVCYMEKVLDYANWPCR	8.458 ± 0.066
PKQDTA	-0.967 ± 0.36
PKRSCLVLGYNIVITDMQAR	6.28 ± 0.067
PLDPHCVFPIDNTSMMRVV	0.295 ± 0.32
PLLTMWDLDSGVSGFCQVRS	-0.477 ± 0.35
PLMSLLPPPNTR	-0.935 ± 0.44
PMFNEHRFSR	2.37 ± 0.1
PMSSMMRGSDPKV	0.119 ± 0.76
PNRYYQLGTYFLNVQVRQFG	4.18 ± 0.045
PPRGRTAINMTSKCQARVRP	0.966 ± 0.3
PQAVLKGTQGHNLTKNLTWA	-0.774 ± 0.49
PRGEFTWWSLGIIPNRWQCR	-0.771 ± 1.1
PRKLLSLKPNSTAAGKCATL	2.89 ± 0.079
PRKPRNVDSL	0.134 ± 0.18
PRLYTPILYCLLTRCKVYTT	3.41 ± 0.051
PRWRDRVVNMKSDLDGV	5.51 ± 0.073
PSAVRTILVTAI	-0.447 ± 0.35
PSCDVFVKIRLHFAFVKNFI	inactive
PSDTYNNDG	0.751 ± 0.58

Substance	amyloid nucleation score
PSGFVVLGSLCGMIFVRVTK	-0.974 ± 0.49
PSLRV	1.08 ± 0.42
PSMIYFYRGSSLFASWGFLI	inactive
PSNKLKWLCLDV	0.576 ± 0.43
PSRVSVSYM	2.69 ± 0.076
PSVCKWCYMKCRRRTCFSQL	inactive
PSVDCSEIKPIWNLVKYFLI	-0.571 ± 0.26
PSWSAKTCACWNKAYPIVEI	0.633 ± 0.47
PSYDVCSMDCLDEKDGFMWL	0.25 ± 0.62
PTLVLKKAVEPTQENGSLTV	5.767 ± 0.051
PTMEPVVHITLDCVYKDF	inactive
PTRIFSCSRSGGWYYL	-0.831 ± 0.32
PTRLTVKVMCLKPEPLVWKL	6.476 ± 0.042
PTYFWKQQCWVHYICWIMSY	-1.15 ± 0.35
PVNPQEFLSALSSRYEVKSW	-0.095 ± 1.1
PWSSHCSCVFNNKDLILGNT	-0.21 ± 0.79
PWVNRCKELCMFVLGVDRGG	-0.588 ± 1.1
PYALWGIRESHLFQKCWSGM	3.33 ± 0.099
PYELCDRTVRMSFWVTVWGH	0.281 ± 0.49
